Residue numbers refer to the chain shown, from its start. Names and notes keep the numbering of the source.

The values below come from US20170327545A1.

The target of experiment [1] is human polyclonal IgG (Gammanorm) (human). The experiment in a line: SPR (Biacore), ligand amine-coupled to chip, 1 mg/ml human polyclonal IgG flowed; IgG binding signal left after 96 cycles of 10 min 100 mM NaOH (second run, reference for the Q19 mutants). (Surface plasmon resonance follows binding to a sensor surface in real time, without labels.)
For experiment [2] the target is unchanged. Put plainly: SPR (Biacore), ligand amine-coupled to chip, 1 mg/ml human polyclonal IgG flowed; IgG binding signal left after 96 cycles of 10 min 100 mM NaOH.
For experiment [3] the target is unchanged. The experiment in a line: SPR (Biacore), retained IgG binding capacity after 96 NaOH cycles, ratio to reference Domain 3 (itself).
For experiment [4] the target is unchanged. Put plainly: SPR (Biacore), retained IgG binding capacity after 96 NaOH cycles, ratio to reference Domain 3 (itself, second run).
Experiment [5] shares this target. Put plainly: SPR (Biacore), retained IgG binding capacity after 96 NaOH cycles, ratio to reference Domain 3.
The target of experiment [6] is Purified Fab prepared from a papain-digested IgG mAb. Put plainly: dynamic binding capacity at 10% breakthrough, ligand multipoint-coupled to agarose beads (9.5 mg/ml), 1 mg/ml Fab, residence time 4 min.
Experiment [7] concerns the target Purified Dab prepared from heat-treated E. coli supernatant. The experiment in a line: dynamic binding capacity at 10% breakthrough, ligand multipoint-coupled to agarose beads (9.5 mg/ml), 1 mg/ml Dab, residence time 4 min.
The target is the same in experiment [8]. The experiment in a line: dynamic binding capacity at 10% breakthrough, ligand multipoint-coupled to agarose beads (8.8 mg/ml), 1 mg/ml Dab, residence time 4 min.
The target of experiment [9] is Purified Fab prepared from a papain-digested IgG mAb. The experiment in a line: dynamic binding capacity at 10% breakthrough, ligand multipoint-coupled to agarose beads (8.8 mg/ml), 1 mg/ml Fab, residence time 4 min.
Experiment [10] has as its target human polyclonal IgG (Gammanorm) (human). The experiment in a line: SPR (Biacore), ligand amine-coupled to chip, 1 mg/ml human polyclonal IgG flowed; IgG binding signal left after 100 cycles of 10 min 100 mM NaOH.
Experiment [11] shares this target. The experiment in a line: SPR (Biacore), retained IgG binding capacity after 100 NaOH cycles, ratio to reference Protein L (itself).
Experiment [12] has the same target. The experiment in a line: SPR (Biacore), retained IgG binding capacity after 96 NaOH cycles, ratio to reference Protein L (itself).
For experiment [13], the target named is Purified Dab prepared from heat-treated E. coli supernatant. The experiment in a line: dynamic binding capacity at 10% breakthrough, ligand multipoint-coupled to agarose beads (11.0 mg/ml), 1 mg/ml Dab, residence time 4 min.
The target of experiment [14] is Purified Fab prepared from a papain-digested IgG mAb. The experiment in a line: dynamic binding capacity at 10% breakthrough, ligand multipoint-coupled to agarose beads (11.0 mg/ml), 1 mg/ml Fab, residence time 4 min.

B1: Domain 3 (D3) of Peptostreptococcus magnus Protein L (protein)
chain: AQVPKEEVTIKANLIYADGKTQTAEFKGTFEEATAEAYRYADLLAKENGKYTVDVADKGYTLNIKFAGKEKTPEEC
As to B1, the Retained capacity after 96 cycles (%) in experiment [1] came out at 28%; in experiment [2], 31%. The Sample/ref. ratio in experiment [3] and in experiment [4] was 1 each time.

B2: Domain 2 (D2) of Protein L, variant with alanine in position 31 (protein)
chain: B1 chain with T34A, L43A, A45K, E47D, K50E
The molecule B2 returned a Retained capacity after 96 cycles (%) in experiment [2] of 22%. The Sample/ref. ratio in [5] stood at 0.71.

B3: D3(N10Q, N45A, N60Q)2 (designed binder)
chain: PKEEVTIKAQLIYADGKTQTAEFKGTFEEATAEAYRYADLLAKEAGKYTVDVADKGYTLQIKFAGKEKTPEEPKEEVTIKAQLIYADGKTQTAEFKGTFEEATAEAYRYADLLAKEAGKYTVDVADKGYTLQIKFAGKEKTPEE
Consider B3, for which the QB10 Fab in experiment [6] stood at 19.3 mg/mL. In addition, the QB10 Dab in [7] came to 15.4 mg/mL.

B4: D3(N10Q, N45A, N60Q)4 (designed binder)
chain: PKEEVTIKAQLIYADGKTQTAEFKGTFEEATAEAYRYADLLAKEAGKYTVDVADKGYTLQIKFAGKEKTPEEPKEEVTIKAQLIYADGKTQTAEFKGTFEEATAEAYRYADLLAKEAGKYTVDVADKGYTLQIKFAGKEKTPEEPKEEVTIKAQLIYADGKTQTAEFKGTFEEATAEAYRYADLLAKEAGKYTVDVADKGYTLQIKFAGKEKTPEEPKEEVTIKAQLIYADGKTQTAEFKGTFEEATAEAYRYADLLAKEAGKYTVDVADKGYTLQIKFAGKEKTPEE
B4 yielded a QB10 Dab in experiment [8] of 15.9 mg/mL. The molecule further displayed a QB10 Fab in experiment [9] of 19.3 mg/mL.

B5: Protein L (four kappa light chain-binding domains, with additional AIHNRA sequence at the N-terminus) (protein)
chain: AIHNRAKEETPETPETDSEEEVTIKANLIFANGSTQTAEFKGTFEKATSEAYAYADTLKKDNGEYTVDVADKGYTLNIKFAGKEKTPEEPKEEVTIKANLIYADGKTQTAEFKGTFEEATAEAYRYADALKKDNGEYTVDVADKGYTLNIKFAGKEKTPEEPKEEVTIKANLIYADGKTQTAEFKGTFEEATAEAYRYADLLAKENGKYTVDVADKGYTLNIKFAGKEKTPEEPKEEVTIKANLIYADGKTQTAEFKGTFAEATAEAYRYADLLAKENGKYTADLEDGGYTINIRFAGKKVDEKPEE
Regarding B5, the Retained capacity after 100 cycles (%) in experiment [10] was determined as 23%. The same molecule returned a Retained capacity after 96 cycles (%) in experiment [2] of 28%. For the same molecule, the Sample/ref. ratio in [11] and in experiment [12] was 1 each time.

B6: Domain 4 (D4) of Peptostreptococcus magnus Protein L (protein)
chain: AQVPKEEVTIKANLIYADGKTQTAEFKGTFAEATAEAYRYADLLAKENGKYTADLEDGGYTINIRFAGKKVDEKPEEC
B6 had a Retained capacity after 96 cycles (%) in experiment [2] of 26%. For the same molecule, the Sample/ref. ratio in experiment [5] was 0.84.

B7: D3(N10Q, N45A, N60Q)6 (designed binder)
chain: PKEEVTIKAQLIYADGKTQTAEFKGTFEEATAEAYRYADLLAKEAGKYTVDVADKGYTLQIKFAGKEKTPEEPKEEVTIKAQLIYADGKTQTAEFKGTFEEATAEAYRYADLLAKEAGKYTVDVADKGYTLQIKFAGKEKTPEEPKEEVTIKAQLIYADGKTQTAEFKGTFEEATAEAYRYADLLAKEAGKYTVDVADKGYTLQIKFAGKEKTPEEPKEEVTIKAQLIYADGKTQTAEFKGTFEEATAEAYRYADLLAKEAGKYTVDVADKGYTLQIKFAGKEKTPEEPKEEVTIKAQLIYADGKTQTAEFKGTFEEATAEAYRYADLLAKEAGKYTVDVADKGYTLQIKFAGKEKTPEEPKEEVTIKAQLIYADGKTQTAEFKGTFEEATAEAYRYADLLAKEAGKYTVDVADKGYTLQIKFAGKEKTPEE
Molecule B7 gave a QB10 Dab in experiment [13] of 16.7 mg/mL. In addition, in [14], the QB10 Fab is 21.1 mg/mL.

B8: Domain 1 (D1) of Peptostreptococcus magnus Protein L (protein)
chain: AQVSEEEVTIKANLIFANGSTQTAEFKGTFEKATSEAYAYADTLKKDNGEYTVDVADKGYTLNIKFAGKEKTPEEC
The molecule B8 gave a Retained capacity after 96 cycles (%) in experiment [2] of 13%. Moreover, the Sample/ref. ratio in experiment [5] turned out to be 0.42.
